PMC4533228 (Cell Reports, 2015)

Biological target: T1, polyUb-E6AP (resin-bound E6AP autoubiquitinated with K48-linked polyubiquitin chains) (UniProt Q05086 1-875; P0CG48 1-76, K48-linked polyubiquitin chains of undefined length attached by autoubiquitination; sites not stated | ubiquitins joined to each other by K48 isopeptide linkages and to E6AP; chain length undefined)
T1 construct: HECT E3 ligase E6AP; ubiquitin, the mature 76-residue protein, wild type; Covalent conjugate held on resin; also called K48-polyUb conjugates; polyubiquitinated E6AP; source: E3 enzyme expressed in E. coli and purified
Assay: pull-down; resin-bound polyUb-E6AP and polyUb-Ube2SΔ incubated with 100 nM purified Rpn10-UIM, hHR23A or hHR23B for 30 min at 4°C, washed; bound proteins by immunoblot for His (Rpn10) or hHR23A/B
Details: both partners purified

B1: recombinant Ub-interacting motif (UIM) of Rpn10 (domain or fragment)
chain: MLGLGASDFEFGVDPSADPELALALRVSMEEQRQRQEEEARRAAAASAAEAGIATTGTEDSDDALLKMTISQQEFGRTGLPDLSSMTEEEQIAYAMQMSLQGAEFGQAESA
  fold binding relative to K11 chains (polyUb-Ube2SΔ), ImageJ quantification: ~4 fold
